From article PMC6797743, “Dual self-assembly of supramolecular peptide nanotubes to provide stabilisation in water” (Nature Communications, 2019)
[ ]: non-standard residue; d: D form. pDMA = poly(N,N-dimethylacrylamide) hydrophilic homopolymer (2)

Target: the molecule itself
Test: static light scattering (SLS); conjugates in water, 0.1-3.0 mg mL^-1, filtered (0.45 um PTFE); before and after 1 h of sonication (1 h and 3 days of standing); Nagg = molecular weight of the aggregate / molecular weight of the unimer; length = Nagg x 0.5 nm

B1: CP-(pDMA)2 (4), cyclic peptide-hydrophilic polymer conjugate (peptide)
peptide: cyclo([dL]K(pDMA)[dL]W[dL]K(pDMA)[dL]W)
notes: cyclo(D-Leu-Lys-D-Leu-Trp)2, printed in three-letter code; designed cyclic octapeptide of alternating D and L residues (cyclic peptide 10); the same CP as in m1; also called control conjugate; fully hydrophilic control conjugate
With B1 the “stoichiometry N” value was 25.
